{"source": "patent US5972599", "about": "“High affinity nucleic acid ligands of cytokines” (NeXstar Pharmaceuticals, Inc.)", "key": {"[1]": {"target": "IL-4 (Homo sapiens, UniProt P05112 P05112:25-153)", "sequence (P05112 25-153, one chain of several)": "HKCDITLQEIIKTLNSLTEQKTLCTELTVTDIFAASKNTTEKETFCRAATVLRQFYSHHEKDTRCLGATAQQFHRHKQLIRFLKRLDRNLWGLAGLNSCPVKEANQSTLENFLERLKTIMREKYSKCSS", "experiment": "filter; specificity control", "conditions": "tags: R&D Systems"}, "[2]": {"target": "T1, IFN-gamma (Homo sapiens, UniProt P01579 P01579:24-161)", "T1 sequence (P01579 24-161, one chain of several)": "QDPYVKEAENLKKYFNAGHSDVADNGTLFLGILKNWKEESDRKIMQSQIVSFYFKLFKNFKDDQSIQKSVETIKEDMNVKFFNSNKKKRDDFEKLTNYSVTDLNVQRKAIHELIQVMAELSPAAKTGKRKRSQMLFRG", "experiment": "filter; specificity control", "conditions": "tags: Genzyme (Cambridge MA); Upstate Biotechnology for early SELEX rounds; chain copies: 2 inferred"}, "[3]": {"target": "IL-10 (Homo sapiens, UniProt P22301 P22301:19-178)", "sequence (P22301 19-178, one chain of several)": "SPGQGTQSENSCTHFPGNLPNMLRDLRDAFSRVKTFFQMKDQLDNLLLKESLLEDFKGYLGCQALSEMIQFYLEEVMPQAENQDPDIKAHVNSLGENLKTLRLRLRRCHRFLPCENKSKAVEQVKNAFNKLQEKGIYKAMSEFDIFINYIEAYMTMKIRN", "experiment": "filter; TEM buffer, 37 C", "conditions": "tags: Bachem or R & D Systems; chain copies: 2 inferred"}, "[4]": {"target": "T2, TNF-alpha (Homo sapiens, UniProt P01375 P01375:77-233)", "T2 sequence (P01375 77-233, one chain of several)": "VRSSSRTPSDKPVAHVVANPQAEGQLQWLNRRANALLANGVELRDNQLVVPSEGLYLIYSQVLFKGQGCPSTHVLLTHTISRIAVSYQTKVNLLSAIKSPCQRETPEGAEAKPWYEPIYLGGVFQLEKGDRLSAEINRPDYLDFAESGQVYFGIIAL", "experiment": "competition; U937 cells", "conditions": "tags: Genzyme or R&D Systems; chain copies: 3 inferred", "protocol": "A receptor binding competition assay was used to determine the bioactivity of the RNA ligands. ^125I labelled hTNFα at 0.1 nM was incubated in 50 µl of binding medium (PBS with 0.5 mM Mg^++, 0.2% BSA, 0.02% sodium azide, 1 U/µl RNasin) for 15 min at 4° C. with serially diluted competitors at 10^-4 to 10^-11 M, and 1×10^4/µl U937 cells. Duplicate aliquots were subsequently removed, centrifuged through 2:1 dibutyl-phthalate:dinonyl-phthalate mixture to separate free and bound ^125I labelled hTNFα, and the radioactivity in the pellet was measured on a gamma counter. Nonspecific binding was determined by inclusion of a 200-fold molar excess of unlabeled TNF."}, "[5]": {"target": "T2, TNF-alpha", "experiment": "filter; orphan", "conditions": "tags: Genzyme or R&D Systems; chain copies: 3 inferred"}, "[6]": {"target": "T2, TNF-alpha", "experiment": "FP; no value shown, Kd above 1 uM per footnote; filter binding, DPBS", "conditions": "tags: Genzyme or R&D Systems; chain copies: 3"}, "[7]": {"target": "T1, IFN-gamma", "experiment": "filter; biphasic 1.8/750 nM", "conditions": "tags: Genzyme (Cambridge MA); Upstate Biotechnology for early SELEX rounds; chain copies: 2 inferred", "protocol": "(§1) The determination of equilibrium dissociation constants (Kds) for RNA pools was made subsequent to rounds 5, 8, 12, and 17 to monitor the progress of each SELEX. The Kds of RNA pools for mouse IFN-gamma (Genzyme Inc., Cambridge Mass.) were also determined after rounds 8 and 17. Kds were determined for individual ligands after cloning and sequencing of RNA pools and truncations (described below). Nitrocellulose filter binding was used to determine Kds as follows: filter discs were placed into a vacuum manifold and wetted with 5 ml of mPBS buffer. ^32P-labeled-RNA was incubated with serial dilutions of IFN-gamma in binding buffer for 5–10 min at 37° C. to allow binding to occur. […] The filter discs were dried and counted in a liquid scintillation counter (Beckmann Instruments, Palo Alto Calif.). Equilibrium dissociation constants were determined by least square fitting of the data points using the Kaleidagraph™ graphics program (Synergy Software, Reading Pa.). […] Biphasic binding constants were calculated according to standard procedures. Kds were determined by least square fitting of the data points using the Kaleidagraph™ graphics program.\n(§2) The Kds of individual RNAs within each group were determined by nitrocellulose filter binding as described above. The Kds were determined using either a monophasic or biphasic least squares fit of the data."}, "[8]": {"target": "T1, IFN-gamma", "experiment": "filter; biphasic 2.7/103 nM", "conditions": "tags: Genzyme (Cambridge MA); Upstate Biotechnology for early SELEX rounds; chain copies: 2 inferred", "protocol": "as §1, §2"}, "[9]": {"target": "T1, IFN-gamma", "experiment": "competition; 30 pM 125I-IFN-gamma, A549 cells", "conditions": "tags: Genzyme (Cambridge MA); Upstate Biotechnology for early SELEX rounds; chain copies: 2 inferred"}, "[10]": {"target": "T1, IFN-gamma", "experiment": "filter; printed as '12 4 nM', decimal uncertain", "conditions": "tags: Genzyme (Cambridge MA); Upstate Biotechnology for early SELEX rounds; chain copies: 2 inferred", "protocol": "The determination of equilibrium dissociation constants (Kds) for RNA pools was made subsequent to rounds 5, 8, 12, and 17 to monitor the progress of each SELEX. The Kds of RNA pools for mouse IFN-gamma (Genzyme Inc., Cambridge Mass.) were also determined after rounds 8 and 17. Kds were determined for individual ligands after cloning and sequencing of RNA pools and truncations (described below). Nitrocellulose filter binding was used to determine Kds as follows: filter discs were placed into a vacuum manifold and wetted with 5 ml of mPBS buffer. ^32P-labeled-RNA was incubated with serial dilutions of IFN-gamma in binding buffer for 5–10 min at 37° C. to allow binding to occur. Binding mixes were centrifuged as described above to remove aggregates, aspirated through the filter discs, and then immediately washed with 5 ml mPBS buffer. The filter discs were dried and counted in a liquid scintillation counter (Beckmann Instruments, Palo Alto Calif.). Equilibrium dissociation constants were determined by least square fitting of the data points using the Kaleidagraph™ graphics program (Synergy Software, Reading Pa.). […] Biphasic binding constants were calculated according to standard procedures. Kds were determined by least square fitting of the data points using the Kaleidagraph™ graphics program."}}}
{"binder": "IL-10 ligand 43 (ssRNA, 2'-F all C and U) RNA: GGGAGACAAGAAUAAACGCUCAAACAUCGUAUAACUCUAAGGGCCUGGAUAUACGAUGAAUUCGACAGGAGGCUCACAACAGGC", "values": [{"measurement": "binding result", "setting": "[1]", "value": "no binding"}, {"measurement": "binding result", "setting": "[2]", "value": "no binding"}, {"measurement": "Kd", "setting": "[3]", "value": 213, "unit": "nM"}]}
{"binder": "TNF 18C (ssRNA) RNA: GGGAGCUCAGAAUAAACGCUCAAUGUCGAGUGCGAUGGAGGAGUAGGGAUGCAUUCGACAUGAGGCCCGGAUCCGGC", "values": [{"measurement": "Ki", "setting": "[4]", "value": 2500, "unit": "nM"}, {"measurement": "Kd", "setting": "[5]", "value": 460, "unit": "nM"}]}
{"binder": "TNF 12A (ssRNA) RNA: GGGAGCUCAGAAUAAACGCUCAACUUCUUGGCCCCGUCUCAAUGUCCGUACUUCUUCGACAUGAGGCCCGGAUCCGGC", "values": [{"measurement": "Kd", "setting": "[6]", "value": "> 1000", "unit": "nM"}]}
{"binder": "IFN-gamma 2'NH2-17 (ssRNA, 2'-NH2 all C and U) RNA: GGGAGGACGAUGCGGUGGUAGCGCGAUAUAGCGCUGGUAGGGUUGCCGGUGAUCAGACGACUCGCCCGA", "values": [{"measurement": "Kd", "setting": "[7]", "value": 1.8, "unit": "nM"}]}
{"binder": "IFN-gamma 2'NH2-30 (ssRNA, 2'-NH2 all C and U) RNA: GGGAGGACGAUGCGGCAGGUAAUUACAUGAAGGUGGGUUAGGUACUUUCAGGGUCAGACGACUCGCCCGA", "values": [{"measurement": "Kd", "setting": "[8]", "value": 2.7, "unit": "nM"}, {"measurement": "IC50", "setting": "[9]", "value": 10, "unit": "nM"}]}
{"binder": "IFN-gamma 2'NH2-17 truncate (ssRNA, 2'-NH2 all C and U) RNA: GGGAGGACGAUGCGGUGGUAGCGCGAUAUAGCGCUGGUAGGGUUGCCGGUG", "values": [{"measurement": "Kd", "setting": "[10]", "value": 12.4, "unit": "nM"}]}
